Assay results taken from IntAct's records for PubMed 32296183.

What was measured:
tri27_human TRIM27 = tri27_human TRIM27 (UniProt P14373)
ctds1_human CTDSP1 = ctds1_human CTDSP1 (UniProt Q9GZU7)
tm174_human TMEM174 = tm174_human TMEM174 (UniProt Q8WUU8)
mdfi_human MDFI = mdfi_human MDFI (UniProt Q99750)
magd1_human MAGED1 = magd1_human MAGED1 (UniProt Q9Y5V3)
pa2gx_human PLA2G10 = pa2gx_human PLA2G10 (UniProt O15496)
hspb7_human HSPB7 = hspb7_human HSPB7 (UniProt Q9UBY9)
cytm1_human CYSTM1 = cytm1_human CYSTM1 (UniProt Q9H1C7)
wbp2_human WBP2 = wbp2_human WBP2 (UniProt Q969T9)
leng8_human LENG8 = leng8_human LENG8 (UniProt Q96PV6)
pdli7_human PDLIM7 = pdli7_human PDLIM7 (UniProt Q9NR12)
arrd3_human ARRDC3 = arrd3_human ARRDC3 (UniProt Q96B67)
vp37b_human VPS37B = vp37b_human VPS37B (UniProt Q9H9H4)
noto_human NOTO = noto_human NOTO (UniProt A8MTQ0)
hspb8_human HSPB8 = hspb8_human HSPB8 (UniProt Q9UJY1)
egr4_human EGR4 = egr4_human EGR4 (UniProt Q05215)
dtx3_human DTX3 = dtx3_human DTX3 (UniProt Q8N9I9)
ptn21_human PTPN21 = ptn21_human PTPN21 (UniProt Q16825)
trib3_human TRIB3 = trib3_human TRIB3 (UniProt Q96RU7)
prr34_human PRR34 = prr34_human PRR34 (UniProt Q9NV39)
dazp2_human DAZAP2 = dazp2_human DAZAP2 (UniProt Q15038)
fx4l1_human FOXD4L1 = fx4l1_human FOXD4L1 (UniProt Q9NU39)
pihd2_human PIH1D2 = pihd2_human PIH1D2 (UniProt Q8WWB5)
prdm6_human PRDM6 = prdm6_human PRDM6 (UniProt Q9NQX0)
rm38_human MRPL38 = rm38_human MRPL38 (UniProt Q96DV4)

dazp2_human DAZAP2, sequence (Q15038 whole entry): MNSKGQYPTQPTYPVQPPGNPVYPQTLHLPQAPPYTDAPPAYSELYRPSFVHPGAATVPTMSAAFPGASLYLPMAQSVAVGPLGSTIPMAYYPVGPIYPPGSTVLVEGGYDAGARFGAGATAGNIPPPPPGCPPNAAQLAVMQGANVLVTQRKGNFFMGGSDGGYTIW
arrd3_human ARRDC3, sequence (Q96B67 whole entry): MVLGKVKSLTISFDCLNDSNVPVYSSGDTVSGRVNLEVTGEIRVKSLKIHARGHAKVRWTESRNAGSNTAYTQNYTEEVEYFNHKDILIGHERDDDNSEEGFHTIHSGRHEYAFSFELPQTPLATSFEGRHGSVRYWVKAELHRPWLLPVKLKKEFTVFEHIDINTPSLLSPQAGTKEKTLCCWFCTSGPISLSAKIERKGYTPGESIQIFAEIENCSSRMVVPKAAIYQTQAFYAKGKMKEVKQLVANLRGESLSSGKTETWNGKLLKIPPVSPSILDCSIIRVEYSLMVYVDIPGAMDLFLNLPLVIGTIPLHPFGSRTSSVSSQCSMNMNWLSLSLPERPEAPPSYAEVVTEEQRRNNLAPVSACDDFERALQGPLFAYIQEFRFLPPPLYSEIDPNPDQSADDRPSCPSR
prr34_human PRR34, sequence (Q9NV39 whole entry): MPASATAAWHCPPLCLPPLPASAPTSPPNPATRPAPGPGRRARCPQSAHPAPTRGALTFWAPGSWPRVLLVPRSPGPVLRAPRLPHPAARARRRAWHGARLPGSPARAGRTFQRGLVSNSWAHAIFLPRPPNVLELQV
vp37b_human VPS37B, sequence (Q9H9H4 whole entry): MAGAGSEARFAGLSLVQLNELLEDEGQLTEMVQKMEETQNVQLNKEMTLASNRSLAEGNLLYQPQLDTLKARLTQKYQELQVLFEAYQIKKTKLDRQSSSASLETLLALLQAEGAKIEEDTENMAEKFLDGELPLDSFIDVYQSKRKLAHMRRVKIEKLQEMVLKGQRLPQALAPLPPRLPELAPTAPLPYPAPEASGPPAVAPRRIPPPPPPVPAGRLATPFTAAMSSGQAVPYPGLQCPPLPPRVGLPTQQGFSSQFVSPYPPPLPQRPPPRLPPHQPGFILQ
mdfi_human MDFI, sequence (Q99750 whole entry): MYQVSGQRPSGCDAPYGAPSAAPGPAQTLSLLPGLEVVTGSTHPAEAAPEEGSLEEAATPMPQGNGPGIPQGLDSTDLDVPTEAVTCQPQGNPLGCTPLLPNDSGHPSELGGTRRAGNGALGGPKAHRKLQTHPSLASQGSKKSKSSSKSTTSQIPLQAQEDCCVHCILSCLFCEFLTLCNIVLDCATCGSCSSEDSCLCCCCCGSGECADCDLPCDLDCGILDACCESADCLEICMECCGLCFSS
EYA2, O00167-2, sequence (O00167 other isoform, or with tags, fused parts or gaps): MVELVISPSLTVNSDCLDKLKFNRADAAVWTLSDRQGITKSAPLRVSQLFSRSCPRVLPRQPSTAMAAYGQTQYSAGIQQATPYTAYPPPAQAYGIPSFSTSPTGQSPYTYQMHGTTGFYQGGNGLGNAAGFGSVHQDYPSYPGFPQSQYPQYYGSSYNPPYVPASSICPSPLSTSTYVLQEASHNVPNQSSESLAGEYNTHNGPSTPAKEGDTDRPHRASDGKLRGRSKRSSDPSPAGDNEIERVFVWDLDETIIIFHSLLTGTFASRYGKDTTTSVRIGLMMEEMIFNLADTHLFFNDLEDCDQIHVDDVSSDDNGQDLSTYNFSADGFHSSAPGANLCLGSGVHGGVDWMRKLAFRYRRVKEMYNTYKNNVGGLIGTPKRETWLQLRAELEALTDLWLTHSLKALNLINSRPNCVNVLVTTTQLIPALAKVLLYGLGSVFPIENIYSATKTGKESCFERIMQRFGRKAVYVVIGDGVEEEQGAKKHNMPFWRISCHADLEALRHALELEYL
trib3_human TRIB3, sequence (Q96RU7 whole entry): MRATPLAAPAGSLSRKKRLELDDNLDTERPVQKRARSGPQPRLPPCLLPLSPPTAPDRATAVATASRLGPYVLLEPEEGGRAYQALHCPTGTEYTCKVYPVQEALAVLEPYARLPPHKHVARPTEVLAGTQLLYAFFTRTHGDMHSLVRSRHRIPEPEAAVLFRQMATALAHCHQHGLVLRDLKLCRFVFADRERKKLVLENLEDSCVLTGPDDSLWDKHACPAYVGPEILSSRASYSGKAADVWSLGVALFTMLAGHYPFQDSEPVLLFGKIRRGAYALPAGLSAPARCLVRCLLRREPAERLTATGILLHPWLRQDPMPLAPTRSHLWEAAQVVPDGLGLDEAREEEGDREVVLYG
hspb7_human HSPB7, sequence (Q9UBY9 whole entry): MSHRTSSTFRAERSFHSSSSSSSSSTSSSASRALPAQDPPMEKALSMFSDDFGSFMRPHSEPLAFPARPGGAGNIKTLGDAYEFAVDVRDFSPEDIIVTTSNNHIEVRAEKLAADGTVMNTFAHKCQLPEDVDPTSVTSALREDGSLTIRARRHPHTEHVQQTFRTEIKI
noto_human NOTO, sequence (A8MTQ0 whole entry): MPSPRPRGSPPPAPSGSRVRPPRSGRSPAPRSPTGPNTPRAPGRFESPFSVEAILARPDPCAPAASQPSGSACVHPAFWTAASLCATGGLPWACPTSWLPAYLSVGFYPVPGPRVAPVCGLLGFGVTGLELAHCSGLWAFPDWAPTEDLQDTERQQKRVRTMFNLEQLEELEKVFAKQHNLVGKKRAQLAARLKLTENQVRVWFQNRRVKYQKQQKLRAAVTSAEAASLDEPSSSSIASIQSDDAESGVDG
leng8_human LENG8, sequence (Q96PV6 whole entry): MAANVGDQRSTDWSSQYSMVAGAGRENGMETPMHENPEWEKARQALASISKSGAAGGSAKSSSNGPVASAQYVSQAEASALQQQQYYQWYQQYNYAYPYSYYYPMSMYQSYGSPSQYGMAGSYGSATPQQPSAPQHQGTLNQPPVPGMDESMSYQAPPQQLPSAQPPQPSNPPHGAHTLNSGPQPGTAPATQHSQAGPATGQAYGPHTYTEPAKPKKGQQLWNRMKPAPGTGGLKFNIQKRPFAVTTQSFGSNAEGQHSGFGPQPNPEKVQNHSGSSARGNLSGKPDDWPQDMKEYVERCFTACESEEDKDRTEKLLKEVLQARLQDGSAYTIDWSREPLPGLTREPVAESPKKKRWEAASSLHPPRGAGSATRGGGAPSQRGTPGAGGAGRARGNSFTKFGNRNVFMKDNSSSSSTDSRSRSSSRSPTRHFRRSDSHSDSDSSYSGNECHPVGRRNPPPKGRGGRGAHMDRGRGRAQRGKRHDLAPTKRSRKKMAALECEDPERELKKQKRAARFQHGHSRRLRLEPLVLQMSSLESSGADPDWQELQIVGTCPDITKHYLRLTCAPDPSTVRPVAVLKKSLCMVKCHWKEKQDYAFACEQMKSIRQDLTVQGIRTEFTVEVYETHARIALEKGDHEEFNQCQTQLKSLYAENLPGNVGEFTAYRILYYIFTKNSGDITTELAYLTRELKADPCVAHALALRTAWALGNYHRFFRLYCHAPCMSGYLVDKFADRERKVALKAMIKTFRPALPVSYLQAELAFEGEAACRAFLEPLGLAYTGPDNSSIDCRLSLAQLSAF
ctds1_human CTDSP1, sequence (Q9GZU7 whole entry): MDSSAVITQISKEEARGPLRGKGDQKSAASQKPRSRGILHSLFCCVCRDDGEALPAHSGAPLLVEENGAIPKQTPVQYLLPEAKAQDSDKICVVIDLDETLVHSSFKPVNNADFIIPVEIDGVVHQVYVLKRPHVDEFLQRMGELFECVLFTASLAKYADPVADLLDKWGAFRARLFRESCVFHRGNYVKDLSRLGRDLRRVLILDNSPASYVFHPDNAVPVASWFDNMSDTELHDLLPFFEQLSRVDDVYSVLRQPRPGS
ptn21_human PTPN21, sequence (Q16825 whole entry): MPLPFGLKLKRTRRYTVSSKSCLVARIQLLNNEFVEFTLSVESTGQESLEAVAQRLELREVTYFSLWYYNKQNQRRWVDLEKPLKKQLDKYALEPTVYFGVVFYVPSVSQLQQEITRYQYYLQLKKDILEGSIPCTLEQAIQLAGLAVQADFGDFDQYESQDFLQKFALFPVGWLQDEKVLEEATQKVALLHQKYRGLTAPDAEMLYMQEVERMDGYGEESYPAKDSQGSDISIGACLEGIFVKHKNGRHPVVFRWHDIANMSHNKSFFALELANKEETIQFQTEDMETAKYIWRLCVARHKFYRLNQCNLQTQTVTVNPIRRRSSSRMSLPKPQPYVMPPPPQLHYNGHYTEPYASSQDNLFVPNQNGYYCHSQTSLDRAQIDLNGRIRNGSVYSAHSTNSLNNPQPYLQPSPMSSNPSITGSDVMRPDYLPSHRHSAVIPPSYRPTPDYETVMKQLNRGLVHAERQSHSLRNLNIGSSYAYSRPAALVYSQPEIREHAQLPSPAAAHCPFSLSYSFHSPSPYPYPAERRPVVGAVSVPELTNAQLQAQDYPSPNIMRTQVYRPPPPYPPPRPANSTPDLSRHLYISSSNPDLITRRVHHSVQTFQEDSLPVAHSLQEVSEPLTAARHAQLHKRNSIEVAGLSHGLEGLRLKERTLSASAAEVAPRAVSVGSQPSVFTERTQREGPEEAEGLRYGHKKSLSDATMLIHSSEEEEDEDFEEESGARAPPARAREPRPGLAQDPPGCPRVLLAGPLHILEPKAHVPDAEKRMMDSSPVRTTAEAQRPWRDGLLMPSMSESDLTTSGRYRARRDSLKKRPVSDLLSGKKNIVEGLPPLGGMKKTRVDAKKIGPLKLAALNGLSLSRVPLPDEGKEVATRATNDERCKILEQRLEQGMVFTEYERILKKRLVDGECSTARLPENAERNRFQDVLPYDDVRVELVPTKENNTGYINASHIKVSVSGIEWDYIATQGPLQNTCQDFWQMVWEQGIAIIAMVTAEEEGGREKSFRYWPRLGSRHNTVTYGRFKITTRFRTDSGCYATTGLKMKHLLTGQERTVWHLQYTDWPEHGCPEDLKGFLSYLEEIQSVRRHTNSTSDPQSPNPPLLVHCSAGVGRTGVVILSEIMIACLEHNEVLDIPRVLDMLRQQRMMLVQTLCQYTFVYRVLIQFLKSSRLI
cytm1_human CYSTM1, sequence (Q9H1C7 whole entry): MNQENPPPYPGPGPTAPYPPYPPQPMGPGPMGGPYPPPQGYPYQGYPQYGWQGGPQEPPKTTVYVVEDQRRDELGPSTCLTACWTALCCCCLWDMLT

| Substance | effect of a mutation on the interaction (tri27_human TRIM27) | effect of a mutation on the interaction (ctds1_human CTDSP1) | effect of a mutation on the interaction (NR1H3, Q13133-3) | effect of a mutation on the interaction (tm174_human TMEM174) | effect of a mutation on the interaction (mdfi_human MDFI) | effect of a mutation on the interaction (magd1_human MAGED1) | effect of a mutation on the interaction (pa2gx_human PLA2G10) | effect of a mutation on the interaction (hspb7_human HSPB7) | effect of a mutation on the interaction (wbp2_human WBP2) | effect of a mutation on the interaction (GLIS3, Q8NEA6-2) | effect of a mutation on the interaction (leng8_human LENG8) | effect of a mutation on the interaction (pdli7_human PDLIM7) | effect of a mutation on the interaction (arrd3_human ARRDC3) | effect of a mutation on the interaction (vp37b_human VPS37B) | effect of a mutation on the interaction (EYA2, O00167-2) | effect of a mutation on the interaction (noto_human NOTO) | effect of a mutation on the interaction (hspb8_human HSPB8) | effect of a mutation on the interaction (egr4_human EGR4) | effect of a mutation on the interaction (dtx3_human DTX3) | effect of a mutation on the interaction (ptn21_human PTPN21) | other results |
| --- | --- | --- | --- | --- | --- | --- | --- | --- | --- | --- | --- | --- | --- | --- | --- | --- | --- | --- | --- | --- | --- |
| BAG family molecular chaperone regulator 3 (Homo sapiens), O95817 R218W | with no effect | with no effect | with no effect | with no effect | with no effect | with no effect | with no effect | with no effect | with no effect | with no effect | with no effect | with no effect | with no effect | with no effect | with no effect | with no effect | with no effect | with no effect | with no effect | with no effect | effect of a mutation on the interaction (cytm1_human CYSTM1): with no effect; effect of a mutation on the interaction (trib3_human TRIB3): with no effect; effect of a mutation on the interaction (prr34_human PRR34): with no effect; effect of a mutation on the interaction (dazp2_human DAZAP2): with no effect; effect of a mutation on the interaction (fx4l1_human FOXD4L1): with no effect; effect of a mutation on the interaction (SIAH1, Q8IUQ4-2): with no effect; effect of a mutation on the interaction (pihd2_human PIH1D2): with no effect |
| BAG family molecular chaperone regulator 3 (Homo sapiens), O95817 R258W | with no effect | with no effect | with no effect | with no effect | with no effect | with no effect | with no effect | with no effect | with no effect | with no effect | with no effect | with no effect | with no effect | with no effect | with no effect | with no effect | with no effect | with no effect | with no effect | with no effect | effect of a mutation on the interaction (prdm6_human PRDM6): with no effect; effect of a mutation on the interaction (rm38_human MRPL38): disrupting interaction strength; effect of a mutation on the interaction (RUNX1, Q01196-8): with no effect; effect of a mutation on the interaction (trib3_human TRIB3): with no effect; effect of a mutation on the interaction (prr34_human PRR34): with no effect; effect of a mutation on the interaction (dazp2_human DAZAP2): with no effect; effect of a mutation on the interaction (fx4l1_human FOXD4L1): with no effect; effect of a mutation on the interaction (SIAH1, Q8IUQ4-2): with no effect; effect of a mutation on the interaction (pihd2_human PIH1D2): with no effect |
